In patent publication US11459364B2, “Calbindin and BH3 domain chimeric proteins and methods for use” (ProDa Biotech LLC, priority 2014, dated 2022):

Test system: SW620 cells
Experiment: Cell viability of SW620 cells by cell counting after treatment with folate-conjugated chimeric proteins
Assay type: cell-based
Settings: 5 μM, Calbindin D9k host, folate by disulfide bond via 5 kDa PEG, 48 hours
Description: (§1) FIG. 3 illustrates the effects of chimeric proteins having different host peptides and the BH3 domain of Bid on the apoptosis of SW620 cells. […] The SW620 cells were treated with 5 μM of the indicated proteins. The proteins were conjugated to folate by a disulfide bond via a 5 kDa PEG. Cell viability was measured by cell counting 48 hours after treatment with the indicated proteins. Buffer treated cells were used as a reference (100% cell viability). The error bars indicate standard deviations across five repeating experiments.
as §1, with “FIG. 4” for “FIG. 3”, “having a Calbindin D9k host peptide and” for “having”, “different” for “different host peptides and the”, “BH3 domains” for “BH3 domain of Bid”, “(100%” for “(100% cell”
FIG. 7 illustrates the effects of a chimeric protein with a Calbindin D9k host protein, a Bid or Bim BH3 domain, and a conjugated folate on SW620 cells. […] Cell viability was measured by counting cells 48 hours after treatment with the indicated proteins. […]

B1: D-Nox: chimeric protein, Calbindin D9k host with BH3 domain of Noxia, Sequence Id No. 8; tested conjugated to folate (protein)
chain: HMSTKKSPEELKRIFEKYAAKEGDPDQLSKDELKLLIQAEFPCLLKGPNTLDDLFQELDKNPAELEVEMATQLRRFGDKLNFRQKLL
modifications: folate conjugate; Chimeric Variant of human protein and a variant of a BH3 domain
notes: tested conjugated to folate
  induction of apoptosis (cell viability), comparison of BH3 domains: most effective in inducing apoptosis
